These results are taken from patent publication US20200332020A1 (REGENTS OF THE UNIVERSITY OF MINNESOTA, published 2020).

Test [1] addresses HSPG2 (perlecan) on cells (human, UniProt P98160 22-4391). The test is described as follows: apparent KD, flow cytometry titration on tumor cells. For orientation: Flow cytometry measures light scatter and fluorescence of single cells or particles in a stream.
Test [2] has as its target T1, Recombinant HSPG2 domain 1 (first 247 amino acids of human HSPG2, C-terminal His tag) (human, UniProt P98160 22-247).
T1 construct: range 1-247; The stated range counts from residue 1, so it includes the signal peptide; also called HSPG2D1; perlecan domain 1; not shown: C-terminal His tag from the pcDNA 3.3+ vector
The test is described as follows: biolayer interferometry (BLItz), HSPG2 domain 1 on Ni-NTA biosensor. How it is done:
We used biolayer inferometry (BLItz, Fortebio) to determine antibody binding kinetics specifically with purified HSPG2 domain 1. Ni-NTA biosensors were hydrated for 10 minutes in phosphate buffered saline. Following hydration, a 30 second baseline was established, followed by a 10-minute loading of the biosensor with 10 μg/mL HSPG2 domain 1 protein. The biosensor was then placed in PBS to establish baseline for 30 seconds. A two-step antibody association—dissociation cycle of 5 minutes each was then used to determine the kinetic association (kₐ) and dissociation (kd) rate constants. The equilibrium dissociation constant (KD) was calculated as KD=kd/kₐ
An important caveat with flow cytometry-based titration curves is the potential for avidity affects contributing to the binding, resulting in an ‘apparent KD’. Biophysical techniques are most often employed to generate the true, analytically relevant ‘intrinsic KD^{’} value. We chose biolayer interferometry as a means of assessing the kinetics of antibody-antigen binding with HSPG2D1.
On the technique in general: In BLI a coated tip is dipped into the sample, and binding shifts an interference pattern.

B1: Tw1S4_6 IgG (antibody, V domains shown)
VH: EVQLLESGGGLVQPGGSLRLSCAASGFTFSSYAMSWVRQAPGKGLEWVSAIREDGIKTYYADSVKGRFTISRDNSKNTLYLQMNSLRAEDTAVYYCAKRARRFDYWGQGTLVTVS
VL: DIQMTQSPSSLSASVGDRVTITCRASQSISSYLNWYQQKPGKAPKLLIYNASLLQSGVPSRFSGSGSGTDFTLTISSLQPEDFATYYCQQSLRSPITFGQGTKVEIKR
As for B1, the Kd in test [1] was in the range of 125 to 275 nM. In addition, in test [2], the Kd worked out at 1790 nM, the dissociation rate constant (koff) was 0.0109 s⁻¹ and the on-rate constant (kon) is 6140 M⁻¹ s⁻¹.

Usually koff stands for the first-order rate constant of dissociation. The term kon denotes the rate constant with which the complex forms.
